Results on six molecules are retold here after PMC10308904, “The Cytomegalovirus M35 Protein Directly Binds to the Interferon-β Enhancer and Modulates Transcription of Ifnb1 and Other IRF3-Driven Genes”.

Numbering of substitutions follows the chain as printed.

In data set [1] the target is NStr-M35_S, short M35 (aa 2 to 452) with N-terminal Twin-Strep tag and TEV site (murine cytomegalovirus (MCMV)). Description: SEC-MALS; 100 μg protein on Superdex 200 Increase 10/300 in 50 mM Tris pH 7.4, 10% glycerol, 250 mM NaCl, 1 mM DTT. (In gel filtration, larger molecules generally elute earlier.)
In data set [2] the target is T1, M35_S (murine cytomegalovirus (MCMV) strain …, UniProt D3XDM4 2-452).
T1 sequence: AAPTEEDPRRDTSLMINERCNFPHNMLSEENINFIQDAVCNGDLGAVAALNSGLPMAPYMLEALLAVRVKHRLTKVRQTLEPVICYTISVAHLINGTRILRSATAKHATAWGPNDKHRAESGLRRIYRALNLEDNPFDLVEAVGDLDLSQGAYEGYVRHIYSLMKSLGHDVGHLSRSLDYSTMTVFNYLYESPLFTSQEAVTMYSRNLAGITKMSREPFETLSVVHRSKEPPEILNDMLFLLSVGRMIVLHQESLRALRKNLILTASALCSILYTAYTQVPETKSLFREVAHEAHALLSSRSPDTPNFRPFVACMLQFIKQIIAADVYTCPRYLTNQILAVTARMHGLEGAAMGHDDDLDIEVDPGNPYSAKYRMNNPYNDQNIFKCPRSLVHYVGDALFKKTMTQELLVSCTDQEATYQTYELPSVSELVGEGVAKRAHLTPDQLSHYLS
Description: EMSA; 1 uM M35_S. Conditions: protein: recombinant; tags: N-terminal Twin-Strep tag removed by TEV (GS remnant likely); chain copies: 2; label: 5'-biotin on both strands; 5' overhang 1 nt each end, 56 bp. A general note: A gel shift assay detects complexes by their altered migration in electrophoresis.

Data set [3] concerns the target T1, M35_S. Nature of the data set: EMSA; Hill coefficient 2.775. The settings on record: protein: recombinant; tags: N-terminal Twin-Strep tag removed by TEV (GS remnant likely); chain copies: 2; label: 5'-biotin on both strands; 5' overhang 1 nt each end, 56 bp.
The target of data set [4] is T1, M35_S. Description: EMSA; 0.1-10 uM M35_S; second complex at 10 uM. Conditions: protein: recombinant; tags: N-terminal Twin-Strep tag removed by TEV (GS remnant likely); chain copies: 2; label: 5'-biotin on both strands; 5' overhang 1 nt each end, 56 bp.
For data set [5], the target named is T1, M35_S. Nature of the data set: EMSA. The settings on record: protein: recombinant; tags: N-terminal Twin-Strep tag removed by TEV (GS remnant likely); chain copies: 2; label: 5'-biotin on both strands; 5' overhang 1 nt each end, 56 bp.

Take “NStr-M35_S, short M35 (aa 2 to 452) with N-terminal Twin-Strep tag and TEV site (domain or fragment)”: the stoichiometry N in data set [1] turned out to be 2.

B1: Bio-hIFNb 1-38 (dsDNA)
DNA 1: TAAATGACATAGGAAAACTGAAAGGGAGAAGTGAAAGTGACATGCTACGGAATGAAT
DNA 2: AATTCATTCCGTAGCATGTCACTTTCACTTCTCCCTTTCAGTTTTCCTATGTCATTT
Turning to B1, the binding result in data set [2] is on record as “binds”.

B2: Bio-mIFNb (murine IFN-b enhancer) (dsDNA)
DNA 1: AAAATGACAGAGGAAAACTGAAAGGGAGAACTGAAAGTGGGAAATTCCTCTGAGGCA
DNA 2: CTGCCTCAGAGGAATTTCCCACTTTCAGTTCTCCCTTTCAGTTTTCCTCTGTCATTT
For the molecule B2, the dissociation constant Kd in data set [3] was 2060 nM.

B3: Bio-hIFNb (human IFN-b enhancer) (dsDNA)
DNA 1: B2 DNA 1 with A1T, G10T, C31G, G54A, G55T, C56A, A57G
DNA 2: B2 DNA 2 with C1A, T2C, G3T, C4A, C5T, G28C, C49A
Regarding B3, the binding result in data set [4] is “binds”.

B4: Bio-hIFNb 15-38 (dsDNA)
DNA 1: ATATAAGACGGAATAAACTGAAAGGGAGAAGTGAAAGTGACATGCTACGGAATGAAT
DNA 2: AATTCATTCCGTAGCATGTCACTTTCACTTCTCCCTTTCAGTTTATTCCGTCTTATA
Regarding B4, the binding result in data set [2] is “binds”.

B5: Bio-scrambled (ScrHIFNb) (dsDNA)
DNA 1: ATAAGAGAACTAAGCGGAATAAGTAAGAGATGATCGGATTAGTCGCTAAGAATGAGA
DNA 2: TTCTCATTCTTAGCGACTAATCCGATCATCTCTTACTTATTCCGCTTAGTTCTCTTA
For B5, the binding result in data set [5] is “no binding”.

In general, stoichiometry N refers to a count of units in the complex or per binding partner. As a reminder, the Kd is a measure of binding affinity in units of concentration.
